What follows are binders tested against ACVR2B, Q13705 (assay: Kd (SPR)).
Sequence of ACVR2B, Q13705 (Q13705 whole entry, looked up): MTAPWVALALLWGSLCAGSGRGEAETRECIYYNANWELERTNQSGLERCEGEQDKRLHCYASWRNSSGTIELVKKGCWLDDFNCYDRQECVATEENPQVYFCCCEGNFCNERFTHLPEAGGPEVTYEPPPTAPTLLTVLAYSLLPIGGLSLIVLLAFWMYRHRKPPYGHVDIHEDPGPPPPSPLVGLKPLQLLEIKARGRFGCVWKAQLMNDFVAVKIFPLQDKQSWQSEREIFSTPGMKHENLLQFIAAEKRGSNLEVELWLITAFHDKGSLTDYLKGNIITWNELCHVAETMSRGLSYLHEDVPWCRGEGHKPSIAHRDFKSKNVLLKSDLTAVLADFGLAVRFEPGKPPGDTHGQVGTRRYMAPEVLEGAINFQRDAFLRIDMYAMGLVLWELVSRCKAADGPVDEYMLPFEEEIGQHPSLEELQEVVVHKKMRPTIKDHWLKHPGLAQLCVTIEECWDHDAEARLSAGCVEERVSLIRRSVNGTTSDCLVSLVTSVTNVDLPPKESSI

Binder	Kd [nM]
unnamed (protein) chain 1: QVQLVQSGAEVKKPGASVKVSCKASGYTFTSSYINWVRQAPGQGLEWMGTINPVSGSTSYAQKFQGRVTMTRDTSISTAYMELSRLRSDDTAVYYCARSWGYFDVWGQGTLVTVSS chain 2: QSALTQPASVSGSPGQSITISCTGTSSDVGSYNYVNWYQQHPGKAPKLMIYGVSKRPSGVSNRFSGSKSGNTASLTISGLQAEDEADYYCGTFAGGSYYGVFGGGTKLTVL	106
unnamed (protein) chain 1: QVQLVQSGAEVKKPGASVKVSCKASGYTFTSSHINWVRQAPGQGLEWMGTINPVTGNTSYAQKFQGRVTMTRDTSISTAYMELSRLRSDDTAVYYCARGGYFDYWGQGTLVTVSS chain 2: QSALTQPASVSGSPGQSITISCTGTSSDVGSYNYVNWYQQHPGKAPKLMIYGVSKRPSGVSNRFSGSKSGNTASLTISGLQAEDEADYYCGTFAGGSYYGVFGGGTKLTVL	162
unnamed (protein) chain 1: QVQLVQSGAEVKKPGASVKVSCKASGYTFTSSYINWVRQAPGQGLEWMGTINPVSGSTSYAQKFQGRVTMTRDTSISTAYMELSRLRSDDTAVYYCARGGDFDYWGQGTLVTVSS chain 2: QSALTQPASVSGSPGQSITISCTGTSSDVGSYNYVNWYQQHPGKAPKLMIYGVSKRPSGVSNRFSGSKSGNTASLTISGLQAEDEADYYCGTFAGGSYYGVFGGGTKLTVL	123
unnamed (protein) chain 1: QVQLVQSGAEVKKPGASVKVSCKASGYTFTSTGINWVRQAPGQGLEWMGTINPVTGGTSYAQKFQGRVTMTRDTSISTAYMELSRLRSDDTAVYYCARGGYFDYWGQGTLVTVSS chain 2: QSALTQPASVSGSPGQSITISCTGTSSDVGSYNYVNWYQQHPGKAPKLMIYGVSKRPSGVSNRFSGSKSGNTASLTISGLQAEDEADYYCGTFAGGSYYGVFGGGTKLTVL	234
unnamed (protein) chain 1: QVQLVQSGAEVKKPGASVKVSCKASGYTFTSSYINWVRQAPGQGLEWMGTINPVSGSTSYAQKFQGRVTMTRDTSISTAYMELSRLRSDDTAVYYCARGGDMDYWGQGTLVTVSS chain 2: QSALTQPASVSGSPGQSITISCTGTSSDVGSYNYVNWYQQHPGKAPKLMIYGVSKRPSGVSNRFSGSKSGNTASLTISGLQAEDEADYYCGTFAGGSYYGVFGGGTKLTVL	162
unnamed (protein) chain 1: QVQLVQSGAEVKKPGASVKVSCKASGYTFTSSYINWVRQAPGQGLEWMGTINPVSGSTSYAQKFQGRVTMTRDTSISTAYMELSRLRSDDTAVYYCARGGYTDYWGQGTLVTVSS chain 2: QSALTQPASVSGSPGQSITISCTGTSSDVGSYNYVNWYQQHPGKAPKLMIYGVSKRPSGVSNRFSGSKSGNTASLTISGLQAEDEADYYCGTFAGGSYYGVFGGGTKLTVL	101
unnamed (protein) chain 1: QVQLVQSGAEVKKPGASVKVSCKASGYTFTSSYINWVRQAPGQGLEWMGTINPVSGSTSYAQKFQGRVTMTRDTSISTAYMELSRLRSDDTAVYYCARLAIGDSYWGQGTLVTVSS chain 2: QSALTQPASVSGSPGQSITISCTGTSSDVGSYNYVNWYQQHPGKAPKLMIYGVSKRPSGVSNRFSGSKSGNTASLTISGLQAEDEADYYCGTFAGGSYYGVFGGGTKLTVL	111
unnamed (protein) chain 1: QVQLVQSGAEVKKPGASVKVSCKASGYTFTSSYINWVRQAPGQGLEWMGTINPVSGSTSYAQKFQGRVTMTRDTSISTAYMELSRLRSDDTAVYYCARGGYVDYWGQGTLVTVSS chain 2: QSALTQPASVSGSPGQSITISCTGTSSDVGSYNYVNWYQQHPGKAPKLMIYGVSKRPSGVSNRFSGSKSGNTASLTISGLQAEDEADYYCGTFAGGSYYGVFGGGTKLTVL	153
unnamed (protein) chain 1: QVQLVQSGAEVKKPGASVKVSCKASGYRFTSSGINWVRQAPGQGLEWMGTINPVTGNTSYAQKFQGRVTMTRDTSISTAYMELSRLRSDDTAVYYCARGGYFDYWGQGTLVTVSS chain 2: QSALTQPASVSGSPGQSITISCTGTSSDVGSYNYVNWYQQHPGKAPKLMIYGVSKRPSGVSNRFSGSKSGNTASLTISGLQAEDEADYYCGTFAGGSYYGVFGGGTKLTVL	292
unnamed (protein) chain 1: QVQLVQSGAEVKKPGASVKVSCKASGYTFTSSYINWVRQAPGQGLEWMGTINPVSGSTSYAQKFQGRVTMTRDTSISTAYMELSRLRSDDTAVYYCARQLTLDVWGQGTLVTVSS chain 2: QSALTQPASVSGSPGQSITISCTGTSSDVGSYNYVNWYQQHPGKAPKLMIYGVSKRPSGVSNRFSGSKSGNTASLTISGLQAEDEADYYCGTFAGGSYYGVFGGGTKLTVL	210
unnamed (protein) chain 1: QVQLVQSGAEVKKPGASVKVSCKASGYTFTSSYINWVRQAPGQGLEWMGTINPVSGSTSYAQKFQGRVTMTRDTSISTAYMELSRLRSDDTAVYYCARGGEFDYWGQGTLVTVSS chain 2: QSALTQPASVSGSPGQSITISCTGTSSDVGSYNYVNWYQQHPGKAPKLMIYGVSKRPSGVSNRFSGSKSGNTASLTISGLQAEDEADYYCGTFAGGSYYGVFGGGTKLTVL	704
unnamed (protein) chain 1: QVQLVQSGAEVKKPGASVKVSCKASGYTFTSSYINWVRQAPGQGLEWMGTINPVSGSTSYAQKFQGRVTMTRDTSISTAYMELSRLRSDDTAVYYCARNGYADYWGQGTLVTVSS chain 2: QSALTQPASVSGSPGQSITISCTGTSSDVGSYNYVNWYQQHPGKAPKLMIYGVSKRPSGVSNRFSGSKSGNTASLTISGLQAEDEADYYCGTFAGGSYYGVFGGGTKLTVL	337

Results, then the binder that gave them:

Kd [nM]	Binder
76.7	unnamed (protein) chain 1: QVQLVQSGAEVKKPGASVKVSCKASGYTFTSSYINWVRQAPGQGLEWMGTINPVSGSTSYAQKFQGRVTMTRDTSISTAYMELSRLRSDDTAVYYCARGGYADYWGQGTLVTVSS chain 2: QSALTQPASVSGSPGQSITISCTGTSSDVGSYNYVNWYQQHPGKAPKLMIYGVSKRPSGVSNRFSGSKSGNTASLTISGLQAEDEADYYCGTFAGGSYYGVFGGGTKLTVL
6.37	unnamed (protein) chain 1: QVQLVQSGAEVKKPGASVKVSCKASGYTFTSSYINWVRQAPGQGLEWMGTINPVSGSTSYAQKFQGRVTMTRDTSISTAYMELSRLRSDDTAVYYCARSGYMDYWGQGTLVTVSS chain 2: QSALTQPASVSGSPGQSITISCTGTSSDVGSYNYVNWYQQHPGKAPKLMIYGVSKRPSGVSNRFSGSKSGNTASLTISGLQAEDEADYYCGTFAGGSYYGVFGGGTKLTVL
41.9	unnamed (protein) chain 1: QVQLVQSGAEVKKPGASVKVSCKASGYTFTSSYINWVRQAPGQGLEWMGTINPVSGSTSYAQKFQGRVTMTRDTSISTAYMELSRLRSDDTAVYYCARSGYADYWGQGTLVTVSS chain 2: QSALTQPASVSGSPGQSITISCTGTSSDVGSYNYVNWYQQHPGKAPKLMIYGVSKRPSGVSNRFSGSKSGNTASLTISGLQAEDEADYYCGTFAGGSYYGVFGGGTKLTVL
26.2	unnamed (protein) chain 1: QVQLVQSGAEVKKPGASVKVSCKASGYTFTSSYINWVRQAPGQGLEWMGTINPVSGSTSYAQKFQGRVTMTRDTSISTAYMELSRLRSDDTAVYYCARGGYFDVWGQGTLVTVSS chain 2: QSALTQPASVSGSPGQSITISCTGTSSDVGSYNYVNWYQQHPGKAPKLMIYGVSKRPSGVSNRFSGSKSGNTASLTISGLQAEDEADYYCGTFAGGSYYGVFGGGTKLTVL
101	unnamed (protein) chain 1: QVQLVQSGAEVKKPGASVKVSCKASGYTFTSSYINWVRQAPGQGLEWMGTINPVSGSTSYAQKFQGRVTMTRDTSISTAYMELSRLRSDDTAVYYCARGGYNDYWGQGTLVTVSS chain 2: QSALTQPASVSGSPGQSITISCTGTSSDVGSYNYVNWYQQHPGKAPKLMIYGVSKRPSGVSNRFSGSKSGNTASLTISGLQAEDEADYYCGTFAGGSYYGVFGGGTKLTVL
42.6	unnamed (protein) chain 1: QVQLVQSGAEVKKPGASVKVSCKASGYTFTSSYINWVRQAPGQGLEWMGTINPVSGSTSYAQKFQGRVTMTRDTSISTAYMELSRLRSDDTAVYYCARGGYDDYWGQGTLVTVSS chain 2: QSALTQPASVSGSPGQSITISCTGTSSDVGSYNYVNWYQQHPGKAPKLMIYGVSKRPSGVSNRFSGSKSGNTASLTISGLQAEDEADYYCGTFAGGSYYGVFGGGTKLTVL
9.19	unnamed (protein) chain 1: QVQLVQSGAEVKKPGASVKVSCKASGYTFTSSYINWVRQAPGQGLEWMGTINPVSGSTSYAQKFQGRVTMTRDTSISTAYMELSRLRSDDTAVYYCARSGYFDYWGQGTLVTVSS chain 2: QSALTQPASVSGSPGQSITISCTGTSSDVGSYNYVNWYQQHPGKAPKLMIYGVSKRPSGVSNRFSGSKSGNTASLTISGLQAEDEADYYCGTFAGGSYYGVFGGGTKLTVL
